Experimental data published in US20150351390A1, “COMPOSITIONS AND METHODS FOR AUXIN-ANALOG CONJUGATION” (PIONEER HI-BRED INTERNATIONAL, INC., priority 2012, published 2015).

B1: RcGH3-3: GH3 protein, accession XP_002524947 (protein, listed as Ricinus communis)
chain: MAVDSGLSSPLGPPACEKDAKALQFIEEMTRNIDSVQEKVLAEILSRNAETEYLERFQLNGATDRDAFKSKVPVVTYEDLQPEIQRIANGDRSNIFSSHPISEFLTSSGTSAGERKLMPTIHEELDRRTLLYSLLMPVMNLYVPGLDKGKGLYFLFVKAETKTPGGLVARPVLTSYYKSEHFKNRPFDPYNVYTSPNETILCPDSFQSMYSQMLCGLIMREEVLRVGAVFASGLLRAIRFLQINCKHLAEDISTGTLNPKISDPSIRECMAKILKPNPELAEFITKECSEENWEGIITRIWPNTKYLDVIVTGAMAQYIPTLEYYSNGLPMACTMYASSECYFGVNLNPMVKPSDVSYTIMPNMAYFEFLPHESSSSALSRDSPPRLVDLADVEVGKEYELVITTYAGLNRYRVGDILRVTGFHNAAPQFRFIRRKNVLLSIDSDKTDESELQKAIENASLLLREFNTSVVEYTSYGDTKTIPGHYVIYWELLIKDPSNSPTEQVLNQCCLAMEESLNSVYRQGRVADSSIGPLEIRVVKNGTFEELMDYAISRGASINQYKVPRCVSFTPIMELLDSRVVSKHFSPSLPQWTPERRR
B2: PtGH3-6: GH3 protein, accession EEE95183 (protein, listed as Populus trichocarpa)
chain: MPEAPKNTLKTSDYNLAEKNKISLQFIEDVTSNADEVQKKVLEEILSRNAHVEYLQRHGLNGQTNRETFKKAVPVITYEDIQPDINRIANGDTSQILCSKPISEFLTSSGTSGGERKLMPTIEEELGRRSLLYSLLMPVMTQFVPGLEKGKGMYFLFIKSEAKTPGGLVARPVLTSYYKSTHFKDRPYDPYTNYTSPNETILCPDSYQSMYSQMLCGLCQHKEVLRVGAVFASGFIRAIRFLEKHWKLLANDIRTGIIDPQITDPSVREAVMKILKSDPKLADFIEAECSKESWQGIITRLWPNTKYVDVIVTGTMSQYIPTLDYYSNGLPLVCTMYASSECYFGVNLNPICKPSEVSYTLIPTMAYFEFLPVHRNNGVINSVSMPKSLNEKEQQELVDLVDVKLDQEYELVVTTYAGLYRYRVGDVLRVVGFKNKAPRFSFICRKNVVLSIDSDKTDEVELQSAVKNAVNHLIPFDATLAEYTSYADTTTIPGHYVLFWELSLNGSTPIPPSVFEDCCLTIEESLNSVYRQGRASDKSIGPLEIKIVEPGTFDKLMDYAISLGASINQYKTPRCVKFAPIVELLNSRVVTCYFSPKCPKWAPGHKQWSKN
B3: RcGH3-6: GH3 protein, accession XP_002533739 (protein, listed as Ricinus communis)
chain: MPEAPKNSLISSDYNLSEKNRKTLQFIEDVTSNPDEVQKKVLEEILTRNARVEYLQKHGLNGYTDRESFKKIMPVIAYEDIQPHINRIANGDTSPILCSKPISEFLTSSGTSGGERKLMPTIEEELGRRSLLYSLLMPVMNQFVPGLEKGKGMYFLFIKSEAKTPGGLVARPVLTSYYKSSHFKDRPFDPYTNYTSPNETILCPDSYQSMYSQMLCGLCQRNDVLRVGAVFASGFIRAIRFLEKHWQLLCNDIRTGTVNPQITDLSVREAVMKILKPDPKLADFIAAECSQESWQGIITRLWPNTKYVDVIVTGTMSQYIPTLDYYSNGLPLVCTMYASSECYFGVNLNPLCKPSEVSYTLIPTMAYFEFLPVHRNNGVTNSISMPKSLNEKEQQELVDLVDVKLGQEYELVVTTYAGLYRYRVGDVLRVAGFKNKAPQFNFICRKNVVLSIDSDKTDEVELQNAVKNAVNHLVPFDATLAEYTSYADTTSIPGHYVLFWEITLNGSTPIPPSIFEDCCLTIEESLNSVYRQGRVSDKSIGPLEIKIVEPGTFDKLMDYAISLGASINQYKTPRCVKFAPIVELLNSRVVSSYFSPKCPKWVPGHKQWGNKN
B4: VvGH3-1: GH3 protein, accession XP_002271252 (protein, listed as Vitis vinifera)
chain: MAVDPILSSPLGPAASEKDAKALQFIEEMTRNADSVQERVLAEILSRNGETEYLKRFKLEGSTVRETFKSKIPVIKYEDLQPEIQRIANGDRSAILSAHPISEFLTSSGTSAGERKLMPTIQEELDRRQMLYSLLMPVMNLYVPGLDKGKGLYFLFVKSETRTPGGLLARPVLTSYYKSEHFKTRPYDPYNVYTSPNEAILCADSFQSMYTQMLCGIYERKQVLRLGAVFASGLLRAIRFLQLNWHQLTHDIRTGTLSPKITDPSVRNCVAGVLKPDPELADLVAGECSKDNWEGIITRIWPNTKYLDVIVTGAMAQYIPTLDYYSGGLPLACTMYASSECYFGLNLNPMSKPSEVSYTIMPNMAYFEFLPHEHSSIPLSRDSPPRLVDLAHVEVGKEYELVITTYAGLYRYRVGDILRVTGFHNSAPQFHFVRRKNVLLSIDSDKTDEAELQKAVDNASKLLREVNTSVVEYTSFADTKTIPGHYVIYWELLVKDSANSPSDELLGQCCLAMEESLNSVYRQGRVADNSIGPLEIRVVKSGTFEELMDYAISRGASINQYKVPRCVNFTPIMELLDSRVVSSHFSPALPHWTPARRR
B5: VvGH3-2: GH3 protein, accession XP_002283886 (protein, listed as Vitis vinifera)
chain: MAVDSGLSSPLGPPACEKDAKALQFIEEMTRNPDQVQEKILAEILSQNGETEYLQRFKLAGATDRDTFKSKVPVVTYEDLQPDIQRIANGDRSPILSSHPISEFLTSSGTSAGERKLMPTIHEEWDRRQKLYSLLMPVMNLYVPGLDKGKGLYFLFVKSETKTPSGLVARPVLTGYYRSEHFKKRPYDPYNVYTSPDEAILCVDSFQSMYAQMLCGLLMHKEVLRVGAVFASGLLRAIRFLQVHWQQLAHDISTGILNPKITDPSVREGLAGILKPSQELADFIIQECSGGNWERIITRIWPNTKYLDVIVTGAMAQYIPTLDYFSGGIPLACTMYASSECYFGLNLKPMSKPSEVSYTIMPNMGYFEFLPHDPSAPPLSRDSPPRLVDLADVEVGKEYELVITTYAGLCRYRVGDILQVTGFHNSAPQFQFIRRKNVLLSIDSDKTDEAELQKAVENASLLLREFNTSVVEYTSFADTKTIPGHYVIYWELLVKDPSNSPTDTVLKQCCLAMEESLNTVYRQGRVADNSIGPLEIRVVKSGTFEELMDYAISRGASINQYKVPRCVNFTPIMELLDSRVLSTYFSPAAPHWTPERRRTD
B6: ThBAJ34606: GH3 protein, accession BAJ34606 (protein, listed as Thellungiella halophila)
chain: MPEAPKNESLEIFDLTLDEKNKRKLQLIEELTSNADQVQRRVLEEILTRNADVEYLRRHDLDGRTDRETFKNVMPVITYEDIQPEINRIANGDKSHILSIKPISEFLTSSGTSGGERKLMPTIEEELDRRSLLYSLLMPVMSQFVPGLDKGKGMYFLFIKSESKTPGGLPARPVLTSYYKSSHFKERPFDPYTNYTSPNETILCPDSYQSMYSQMLCGLCQHQEVLRVGAVFASGFIRAIKFLEKHWTELVCDIRTGVLSSLITDPSVREAVAKILKPNPKLADFVESECKKKSWQGIITRLWPNTKYVDVIVTGTMSQYIPTLDYYSNGLPLVCTMYASSECYFGVNLKPLCKPSEVSYTLIPTMAYFEFLPVHRNTGVTNSINLPKALTEKEQQELVDLVDVKLGQEYELVVTTYAGLCRYRVGDLLRVTGFKNKAPQFSFICRKNVVLSIDSDKTDEVELQNAVKNAVTHLVPFDASLSEYTSYADTSSIPGHYVLFWELCLDGNTPIPPSVFEDCCLAVEESLNTVYRQGRVSDKSIGPLEIKIVEPNTFDKLMDYAISLGASINQYKTPRCVKFAPIIELLNSRVVDSYFSPKCPKWVPGHRQWGSN
B7: VvGH3-3: GH3 protein, accession XP_002283229 (protein, listed as Vitis vinifera)
chain: MPEAPKKSFKATGHDYCLAEKNKKALQFIEDVTTNADQVQKRVLAEILTRNAHVEYLHRHGLGGHTDRDTFKKLMPVITYEDLQPDITRIANGDTSLILCSNPISEFLTSSGTSGGERKLMPTIEEELERRSLLYSLLMPVMSQSVQGLEKGKGMYFLFIKSEAKTPGGLVARPVLTSYYKSSHFRERPYDPYTNYTSPNETILCPDSYQSMYSQMLCGLVQNKEVLRVGAVFASGFIRAIRFLEKHWTLLCRDIRTGTIDQQITDPSVREAVMRVLKPDPKLADFVEGECRKESWQGIITRLWPNTKYVDVIVTGTMSQYIPTLDYYSNDLPLVCTMYASSECYFGVNLNPLCKPSEVSYTLIPTMAYFEFLPVHRNNGTNSISVPKSLNDKEQQDLVDLVDVKLGQEYELVVTTYAGLYRYRVGDVLRVAGFKNKAPQFNFVCRKNVVLSIDSDKTDEVELQAAVKNAVNHLMPFDATLTEYTSYADTTTIPGHYVLYWELSLRGSTPIPPSVFEDCCLTVEESLNSVYRQGRVSDKSIGPLEMKIVESGTFDKLMDYAISLGASINQYKTPRCVKFAPIIELLNSRVVSNYFSPKCPKWIPGHKQWCNKN

Key:
[1] = LC-MS assay of GH3 conjugation of 2,4-D with Asp or Glu; type: biochemical; conditions: 5 mM 2,4-D substrate; for kcat (hrs−1) 2,4-D-Asp: conjugation of 2,4-D with Asp by recombinant GH3 protein, 2,4-D-Asp product by LC-MS; for kcat (hrs−1) 2,4-D-Glu: conjugation of 2,4-D with Glu by recombinant GH3 protein, 2,4-D-Glu product by LC-MS
In short: (§1)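 N-His-tagged GH3 homologs expressed in E. coli C41(DE3) and Ni-NTA purified (44 to 164 μg/mL) were incubated 3 hours at 30° C. in 20 mM Tris-HCl pH 8.0, 5 mM MgCl2, 1 mM DTT with 5 mM each of auxin, ATP and Asp or Glu. Conjugates were quantified by LC-MS against standards.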

[2] = LC-MS assay of GH3 conjugation of IAA with Asp or Glu; type: biochemical; conditions: for kcat (hrs−1) IAA-Asp: conjugation of IAA with Asp by recombinant GH3 protein, IAA-Asp product by LC-MS; for kcat (hrs−1) IAA-Glu: conjugation of IAA with Glu by recombinant GH3 protein, IAA-Glu product by LC-MS
In short: as §1

Row | Molecule | kcat (hrs−1) 2,4-D-Asp [1] [h⁻¹] | kcat (hrs−1) 2,4-D-Glu [1] [h⁻¹] | kcat (hrs−1) IAA-Asp [2] [h⁻¹] | kcat (hrs−1) IAA-Glu [2] [h⁻¹]
1 | B1 | 3.813 | 1.854 | 887.172 | 36.015
2 | B2 | 5.415 | 2.816 | 888.111 | 181.954
3 | B3 | 4.189 | 2.525 | 1037.037 | 183.972
4 | B4 | 2.529 | 0.635 | 964.027 | 45.433
5 | B5 | 5.691 | 1.113 | 1011.181 | 45.833
6 | B6 | 4.232 | 1.750 | 610.082 | 67.109
7 | B7 | 5.615 | 1.602 | 1006.325 | 79.770
